B1: GFR-binding compound of SEQ ID NO: 76 (peptide)
peptide: TPTKMSPINMLYFNEKNNIIYGKIPGMVVD
modifications: not fully specified
B2: GFR-binding compound of SEQ ID NO: 94 (peptide)
peptide: TPTKMSPINMLYFNEKNNIIYGKIPGM
modifications: not fully specified
B3: GFR-binding compound of SEQ ID NO: 89 (peptide)
peptide: VPQALSPISILFIVGRKPKVYKQYEMIVERS
modifications: not fully specified
B4: GFR-binding compound of SEQ ID NO: 88 (peptide)
peptide: APTKLEPLTIVYYDDSSNVIEQLSNNMVVR
modifications: not fully specified
B5: GFR-binding compound of SEQ ID NO: 65 (peptide)
peptide: ASASPSSVPQDLEPLTILYYVGRTPKVEQLSNMV
modifications: not fully specified
B6: GFR-binding compound of SEQ ID NO: 93 (peptide)
peptide: VPARLSPISILYIDAANNVVYKQYEDMVKS
modifications: not fully specified
B7: GFR-binding compound of SEQ ID NO: 98 (peptide)
peptide: VSQDLSAISTLYLKIVRKEPLKNYQEMVEE
modifications: not fully specified
B8: GFR-binding compound of SEQ ID NO: 78 (peptide)
peptide: APTQLSAISTLYLEIVRKKPLKNYQEMEDH
modifications: not fully specified
B9: GFR-binding compound of SEQ ID NO: 92 (peptide)
peptide: VPEKMSSLSILFFDENKNAALKVYPNMTVE
modifications: not fully specified
B10: GFR-binding compound of SEQ ID NO: 86 (peptide)
peptide: APTKLEPLPMVYYEERRNVIEQLSNNMVVR
modifications: not fully specified
B11: GFR-binding compound of SEQ ID NO: 74 (peptide)
peptide: VPARLSPISILYIDAANNVVYKQYEDM
modifications: not fully specified
B12: GFR-binding compound of SEQ ID NO: 73 (peptide)
peptide: VPEKMSSLSILFFDENKNVVLKVYPNMAVS
modifications: not fully specified
B13: GFR-binding compound of SEQ ID NO: 82 (peptide)
peptide: VPTKLSPISILYIDKMGVPTYKQYEEGMSVAE
modifications: not fully specified
B14: GFR-binding compound of SEQ ID NO: 67 (peptide)
peptide: VPTKLSPISILYIDDMGVPTYKQYEEGMSVAE
modifications: not fully specified
B15: GFR-binding compound of SEQ ID NO: 68 (peptide)
peptide: VPQALSPISILYIDDMGVPTYKQYEEGMSVAE
modifications: not fully specified
B16: GFR-binding compound of SEQ ID NO: 83 (peptide)
peptide: VPARLSPISILYIDEMGVPTYKQYEEGMSVAE
modifications: not fully specified
B17: GFR-binding compound of SEQ ID NO: 77 (peptide)
peptide: APTQLSAISTLYLEIVRKKPLKNYQFLQHNK
modifications: not fully specified
B18: GFR-binding compound of SEQ ID NO: 95 (peptide)
peptide: RNVQCRPTQLEPLPIVYYEIVRKKPEQLSNTLE
modifications: not fully specified
B19: GFR-binding compound of SEQ ID NO: 71 (peptide)
peptide: TQVQLEPLTLLYYDENEKVIEQLSNDMVVE
modifications: not fully specified
B20: GFR-binding compound of SEQ ID NO: 64 (peptide)
peptide: NDEGLECVPTEERPVQVRKIRIKPHQGQKKATVFLQHNK
modifications: not fully specified
B21: GFR-binding compound of SEQ ID NO: 79 (peptide)
peptide: NDEGLECVPTEERPVQVRKIRIKPHQGQKKATVFLQHNK
modifications: not fully specified
B22: GFR-binding compound of SEQ ID NO: 85 (peptide)
peptide: VPQALSPISILFIRLKPHQGHLGEMSNMVVR
modifications: not fully specified
B23: GFR-binding compound of SEQ ID NO: 90 (peptide)
peptide: VPTELSPISILFIVGGKPKVYKQYENMVVE
modifications: not fully specified
B24: GFR-binding compound of SEQ ID NO: 91 (peptide)
peptide: SRVHHNAISTLYFDESSNVILKKYRGMSVVE
modifications: not fully specified
B25: GFR-binding compound of SEQ ID NO: 96 (peptide)
peptide: VPTHHSAISTLYLELAGEKPLKNYQFLQHNK
modifications: not fully specified
B26: GFR-binding compound of SEQ ID NO: 97 (peptide)
peptide: VPTHHSAISMLYLELGGDKPLENYQFLQ
modifications: not fully specified
B27: GFR-binding compound of SEQ ID NO: 84 (peptide)
peptide: VPTEESNITTQIMRIKPHQGQHIGEMSFLQH
modifications: not fully specified
B28: GFR-binding compound of SEQ ID NO: 69 (peptide)
peptide: VPTEESNITTQIMRIKPHQGQHIGEMSFLQH
modifications: not fully specified
B29: GFR-binding compound of SEQ ID NO: 70 (peptide)
peptide: VPTELSPISILFIRIKPHQGHLGEMSAAVVE
modifications: not fully specified
B30: GFR-binding compound of SEQ ID NO: 72 (peptide)
peptide: VPQALNAISTLYFDDSSNVILKKYRNMAVS
modifications: not fully specified
B31: GFR-binding compound of SEQ ID NO: 75 (peptide)
peptide: VPQALSPINMLYFNEKNQIIYGKIPFLQHNK
modifications: not fully specified
B32: GFR-binding compound of SEQ ID NO: 81 (peptide)
peptide: RNVQCRPTQLEPLPIVYYEIVRKKPEQLSNTLEDHLA
modifications: not fully specified
B33: GFR-binding compound of SEQ ID NO: 66 (peptide)
peptide: RNVQCRPTQLEPLPIVYYEIVRKKPEQLSNTLEDHLA
modifications: not fully specified
B34: GFR-binding compound of SEQ ID NO: 80 (peptide)
peptide: ASASPSSVPQDLEPLTILYYVGRTPKVEQLSNMVEDH
modifications: not fully specified
B35: GFR-binding compound of SEQ ID NO: 87 (peptide)
peptide: VPTKLSAISTLYLDLAREEPLKNYQEMVVE
modifications: not fully specified

No end group written: not given here.

The assay addresses growth factor receptors. The experiment in a line: cell-based or functional assay.
The molecule B1 returned a p-Smad1/5/8 (%) of 55%. In the case of B2, the p-Smad1/5/8 (%) was 41%. Next, B3: 41%; B4: 32%; B5: 38%. B6 returned a p-Smad1/5/8 (%) of 44%. The molecule B7 displayed a p-Smad1/5/8 (%) of 39%. The molecule B8 had a p-Smad1/5/8 (%) of 58%. Next, B9: 52%; B10: 34%. Regarding B11, the p-Smad1/5/8 (%) worked out at 51%. In turn, B12 showed a p-Smad1/5/8 (%) of 44%. In the case of B13, the p-Smad1/5/8 (%) worked out at 35%. The figure for B14 is 40%; for B15 it is 39%.

B16 gave a p-Smad1/5/8 (%) of 33%. The molecule B17 had a p-Smad1/5/8 (%) of 52%. The figure for B18 is 29%. The figure for B19 is 47%.

For B20, the p-Smad1/5/8 (%) was determined as 36%. The figure for B21 is 27%; for B22 it is 26%; for B23 it is 36%. Next, B24: 56%; B25: 47%. The molecule B26 showed a p-Smad1/5/8 (%) of 46%. Next, B27: 22%. With B28, the p-Smad1/5/8 (%) came out at 32%. B29 displayed a p-Smad1/5/8 (%) of 30%. For the molecule B30, the p-Smad1/5/8 (%) was found to be 48%.

B31 returned a p-Smad1/5/8 (%) of 54%. Next, B32: 41%; B33: 38%. The figure for B34 is 34%; for B35 it is 38%.

The values are drawn from patent publication US20190224279A1, “PHARMACEUTICAL ASSOCIATION COMPRISING A GROWTH FACTOR RECEPTOR AGONIST CONJUGATED TO A BIOACTIVE CARRIER FOR CONVERTING A NEOPLASTIC CELL INTO A NON-NEOPLASTIC CELL AND USES THEREOF” (HISTIDE AG, priority 2015, published 2019).
